The results in this text go back to patent EP4685489A2 (Roche Diagnostics GmbH, dated 2026).

Experiment [1] addresses T1, recombinant N-terminal fragment (residues 1-330) of human cardiac-type Myosin-binding protein C3 with … (human, UniProt Q14896 1-330).
T1 construct: expressed in HEK293-F cells and purified as a monomer; also called MYBPC3; N-terminal MyBPC-Fragment (1-330)
Put plainly: Elecsys ECLIA sandwich; row antibody biotinylated (capture), second antibody ruthenylated 25H1 (detection); 0.9 pg/mL MYBPC3.

Experiment [2] addresses T1, recombinant N-terminal fragment …. As to the kind of experiment: sandwich ELISA, streptavidin MTP; row antibody biotinylated (capture), second antibody DIG-labelled 4.7.10 (detection); 2.7 pg/mL MYBPC3. On the technique in general: In an ELISA, binding on a coated surface is turned into a signal by an enzyme label.
Experiment [3] shares this target. As to the kind of experiment: Elecsys ECLIA sandwich; row antibody biotinylated (capture), second antibody ruthenylated 4.1.1 (detection); 0.9 pg/mL MYBPC3.
The target is the same in experiment [4]. As to the kind of experiment: sandwich ELISA, streptavidin MTP; row antibody biotinylated (capture), second antibody DIG-labelled 7B5 (detection); 2.7 pg/mL MYBPC3.
Experiment [5] has the same target. Put plainly: Elecsys ECLIA sandwich; row antibody biotinylated (capture), second antibody ruthenylated 4.1.1 (detection); 2.7 pg/mL MYBPC3.
Experiment [6] shares this target. As to the kind of experiment: Elecsys ECLIA sandwich; row antibody biotinylated (capture), second antibody ruthenylated 13F11 (detection); 2.7 pg/mL MYBPC3.
For experiment [7] the target is unchanged. Put plainly: Elecsys ECLIA sandwich; row antibody biotinylated (capture), second antibody ruthenylated 25H1 (detection); 2.7 pg/mL MYBPC3.
Experiment [8] shares this target. Put plainly: Elecsys ECLIA sandwich; row antibody biotinylated (capture), second antibody ruthenylated 13F11 (detection); 0.9 pg/mL MYBPC3.
The target is the same in experiment [9]. Put plainly: sandwich ELISA, streptavidin MTP; row antibody biotinylated (capture), second antibody DIG-labelled 5B8 (detection); 2.7 pg/mL MYBPC3.
Experiment [10] shares this target. As to the kind of experiment: sandwich ELISA, streptavidin MTP; row antibody biotinylated (capture), second antibody DIG-labelled 4.1.1 (detection); 2.7 pg/mL MYBPC3.
Experiment [11] shares this target. Put plainly: SPR (Biacore) at 37°C, antibody captured via anti-rabbit Fc, MYBPC3 0.4-90 nM, Langmuir 1:1 fit over 2 series. For orientation: In SPR one partner is held on a chip, and binding of the other changes the refractive index at the surface.
The target is the same in experiment [12]. Put plainly: Elecsys ECLIA sandwich; row antibody biotinylated (capture), second antibody ruthenylated 7D5 (detection); 0.9 pg/mL MYBPC3.
For experiment [13] the target is unchanged. As to the kind of experiment: Elecsys ECLIA sandwich; row antibody biotinylated (capture), second antibody ruthenylated 8H1 (detection); 2.7 pg/mL MYBPC3.
Experiment [14] shares this target. Put plainly: Elecsys ECLIA sandwich; row antibody biotinylated (capture), second antibody ruthenylated 8H1 (detection); 0.9 pg/mL MYBPC3.
Experiment [15] shares this target. As to the kind of experiment: SPR (Biacore) at 37°C, antibody captured via anti-mouse Fc, MYBPC3 0.4-90 nM, Langmuir 1:1 fit over 2 series.
The target is the same in experiment [16]. Put plainly: sandwich ELISA, streptavidin MTP; row antibody biotinylated (capture), second antibody DIG-labelled 4.6.6 (detection); 1 ng/mL MYBPC3.
For experiment [17] the target is unchanged. Put plainly: Elecsys ECLIA sandwich; row antibody biotinylated (capture), second antibody ruthenylated 11F2 (detection); 2.7 pg/mL MYBPC3.
For experiment [18] the target is unchanged. Put plainly: Elecsys ECLIA sandwich; row antibody biotinylated (capture), second antibody ruthenylated 7D5 (detection); 2.7 pg/mL MYBPC3.
Experiment [19] shares this target. As to the kind of experiment: Elecsys ECLIA sandwich; row antibody biotinylated (capture), second antibody ruthenylated 7B5 (detection); 2.7 pg/mL MYBPC3.
The target is the same in experiment [20]. Put plainly: sandwich ELISA, streptavidin MTP; row antibody biotinylated (capture), second antibody DIG-labelled 4.1.1 (detection); 1 ng/mL MYBPC3.
For experiment [21] the target is unchanged. Put plainly: Elecsys ECLIA sandwich; row antibody biotinylated (capture), second antibody ruthenylated 7B5 (detection); 0.9 pg/mL MYBPC3.
Experiment [22] has the same target. As to the kind of experiment: sandwich ELISA, streptavidin MTP; row antibody biotinylated (capture), second antibody DIG-labelled 4.7.10 (detection); 1 ng/mL MYBPC3.
Experiment [23] has the same target. As to the kind of experiment: Elecsys ECLIA sandwich; row antibody biotinylated (capture), second antibody ruthenylated 5B8 (detection); 0.9 pg/mL MYBPC3.
The target is the same in experiment [24]. As to the kind of experiment: Elecsys ECLIA sandwich; row antibody biotinylated (capture), second antibody ruthenylated 5B8 (detection); 2.7 pg/mL MYBPC3.
For experiment [25] the target is unchanged. Put plainly: Elecsys ECLIA sandwich; row antibody biotinylated (capture), second antibody ruthenylated 11F2 (detection); 0.9 pg/mL MYBPC3.

T1 sequence (Q14896 other isoform, or with tags, fused parts or gaps limits assumed): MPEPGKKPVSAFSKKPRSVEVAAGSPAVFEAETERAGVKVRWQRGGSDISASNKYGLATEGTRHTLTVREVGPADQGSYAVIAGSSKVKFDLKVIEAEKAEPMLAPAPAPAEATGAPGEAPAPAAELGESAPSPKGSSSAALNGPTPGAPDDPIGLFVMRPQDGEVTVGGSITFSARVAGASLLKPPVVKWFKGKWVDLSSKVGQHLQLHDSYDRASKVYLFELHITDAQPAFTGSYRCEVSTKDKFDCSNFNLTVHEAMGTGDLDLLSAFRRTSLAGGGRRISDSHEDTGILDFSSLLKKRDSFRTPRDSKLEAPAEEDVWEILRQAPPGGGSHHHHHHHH

B1: monoclonal antibody 7B5 (antibody, V domains shown)
VH: QEQLEESGGGLVKPGGTLTLTCKVSGFDFSSGYDMCWVRQAPGKGLESIACIGSSSASTWYANWVNGRFTVSRSTSLNTVDLKMTSLTVADTATYFCARESSTEYYYNLWGPGTLVTVSS
VL: DIVMTQTPASVEAAVGGTVTIKCQASQSIGNALAWYQQKPGQPPKLLIYSTSYLPSGVPSRFKGGGSGAEYTLTISDLECADAATYYCQSYYVSTSSSDRSSFGGGTEVVVK
notes: Rabbit B-cell derived monoclonal IgG, expressed recombinantly in HEK293 cells; Biotinylated, DIG-labelled or ruthenylated in the sandwich assays; also called mAB 7B5; MAK<MYPBC3<rK-7B5-IgG(SPA)
Usually Kd stands for the equilibrium constant for the complex coming apart. As a reminder, the koff is the rate constant with which the complex falls apart. For orientation: kon means a measure of how fast the partners come together. B1: the “ratio (0.9 pg/mL) / blank” value in experiment [1] came out at 1.01; in [3], 1.18; in experiment [8] it was 1.01. For the same molecule, the “Ratio (Δ OD 2.7 pg/mL/blank)” value in experiment [2] is 0.98; in [4], 0.98; in [9], 1.01; in experiment [10], 3.07. Further, the “ratio (2.7 pg/mL) /blank” value in [5] came out at 1.4; in experiment [6], 1.02; in [7], 1.03. Besides, the Kd in experiment [11] stood at 0.19 nM. Besides, the koff in experiment [11] was found to be 0.00051 s⁻¹. In [11], the kon turned out to be 2.7e+06 M⁻¹ s⁻¹.

B2: monoclonal antibody 4.1.1 (antibody, V domains shown)
VH: QVQLKESGPGLVAPSQSLSITCTVSGFSLTGYGVNWVRQPPGKGLEWLGMIWGDGSTDYNSVYKSRLSISKDNSKSQVFLKMNSLQTDDTARYYCARRDTGGASMDYWGQGTSVTVSS
VL: DILMTQSPAILSVSPGERVSFSCRASQNIGTNMHWYQQRTNGSPRLLIRFASESFSGIPSRFSGTGSGTDFTLRINSVESEDIADYYCQQSYNWPFTFGAGTKLELK
notes: Mouse hybridoma monoclonal IgG; Biotinylated, DIG-labelled or ruthenylated in the sandwich assays; also called M-4.1.1; M.4.1.1
Regarding B2, the “ratio (0.9 pg/mL) / blank” value in [1] was 1.01; in experiment [12] it was 1.02; in experiment [14], 1.02; in experiment [21], 1.11; in [8] it was 1.14; in experiment [23] it was 0.99. Also, the “ratio (0.9 pg/mL) / blank” value in experiment [25] was 1.01. Further, the “ratio (2.7 pg/mL) /blank” value in experiment [13] amounted to 1.01; in experiment [17] it was 1; in experiment [18], 1.09; in experiment [6] it was 1.32; in experiment [19], 1.32; in [7], 1. Besides, the “ratio (2.7 pg/mL) /blank” value in experiment [24] was 1. For the same molecule, the “Ratio (Δ OD 2.7 pg/mL/blank)” value in [4] amounted to 1.43; in experiment [9] it was 0.99. Besides, the Kd in experiment [15] amounted to 0.056 nM. Further, the koff in [15] came out at 0.00012 s⁻¹. Moreover, the kon in experiment [15] stood at 2.1e+06 M⁻¹ s⁻¹. Also, the “Ratio (Δ OD 1 ng/mL MYBPC3) / blank” value came out at 3.39 in [16], 1.09 in experiment [20] and 23.6 in [22].
